# Assay results from US20140093526A1 (RESEARCH FOUNDATION FOR MICROBIAL DISEASES OF OSAKA …, published 2014).
# T1: HHV-6B gQ1 carboxy-terminal deletion mutant, position 1 to position 483 (human herpesvirus 6B (HHV-6B), UniProt Q9QJ11 25-483)
# T1 construct: Expressed in 293T cells together with gQ2; also called gQ1 1-483
# T1 chain: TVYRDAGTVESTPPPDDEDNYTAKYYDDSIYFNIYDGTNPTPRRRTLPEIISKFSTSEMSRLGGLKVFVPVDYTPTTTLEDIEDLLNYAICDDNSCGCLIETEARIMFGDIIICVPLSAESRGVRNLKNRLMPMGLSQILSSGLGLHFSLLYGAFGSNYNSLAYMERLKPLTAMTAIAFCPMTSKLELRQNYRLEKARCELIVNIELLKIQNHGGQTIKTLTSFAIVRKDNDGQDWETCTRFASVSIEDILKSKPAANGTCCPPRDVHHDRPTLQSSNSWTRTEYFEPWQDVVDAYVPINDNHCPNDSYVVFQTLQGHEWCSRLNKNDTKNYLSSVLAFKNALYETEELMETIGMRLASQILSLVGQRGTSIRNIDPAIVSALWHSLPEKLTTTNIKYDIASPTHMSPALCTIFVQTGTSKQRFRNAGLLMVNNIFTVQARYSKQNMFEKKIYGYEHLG
# T2: HHV-6B gQ1 carboxy-terminal deletion mutant, position 1 to position 466 (human herpesvirus 6B (HHV-6B), UniProt Q9QJ11 25-466)
# T2 construct: Expressed in 293T cells together with gQ2; also called gQ1 1-466
# T2 chain: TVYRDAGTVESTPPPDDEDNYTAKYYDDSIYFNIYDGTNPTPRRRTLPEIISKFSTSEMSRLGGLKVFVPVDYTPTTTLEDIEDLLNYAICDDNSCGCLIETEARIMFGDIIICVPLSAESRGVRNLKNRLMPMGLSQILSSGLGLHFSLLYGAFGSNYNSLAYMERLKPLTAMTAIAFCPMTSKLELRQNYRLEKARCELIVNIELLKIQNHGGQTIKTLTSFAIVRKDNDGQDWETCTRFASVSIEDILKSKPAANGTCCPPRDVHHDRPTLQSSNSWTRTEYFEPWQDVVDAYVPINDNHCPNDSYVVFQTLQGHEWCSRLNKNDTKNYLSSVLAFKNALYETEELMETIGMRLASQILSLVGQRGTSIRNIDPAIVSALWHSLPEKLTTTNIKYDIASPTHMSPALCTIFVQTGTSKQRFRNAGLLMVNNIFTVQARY
# T3: HHV-6B gQ1 carboxy-terminal deletion mutant, position 1 to position 451 (human herpesvirus 6B (HHV-6B), UniProt Q9QJ11 25-451)
# T3 construct: Expressed in 293T cells together with gQ2; also called gQ1 1-451
# T3 chain: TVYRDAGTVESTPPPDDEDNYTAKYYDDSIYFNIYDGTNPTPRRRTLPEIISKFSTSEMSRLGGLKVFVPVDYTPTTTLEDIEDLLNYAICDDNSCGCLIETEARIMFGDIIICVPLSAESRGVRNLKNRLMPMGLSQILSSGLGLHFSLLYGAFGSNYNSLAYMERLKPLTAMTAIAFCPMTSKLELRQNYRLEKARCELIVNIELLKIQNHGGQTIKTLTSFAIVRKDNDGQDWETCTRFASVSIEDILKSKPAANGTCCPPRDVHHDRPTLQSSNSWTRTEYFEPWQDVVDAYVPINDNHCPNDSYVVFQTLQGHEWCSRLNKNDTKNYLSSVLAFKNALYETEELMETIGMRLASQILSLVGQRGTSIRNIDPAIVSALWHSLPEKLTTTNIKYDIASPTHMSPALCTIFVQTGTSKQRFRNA
# B1: HHV-6B glycoprotein Q2 (gQ2) (other)
# chain: LPFFSTLPKITSCCDHYVVLNSLSSVSSSTPTCLDGEILFQNAGQKFCRPFTDNRTIVYTMQDQVQRPWSVTWMDFNLVISDYGRAVIENLTESAMSAHKNGPRYLQMETFISDLFRYECHRDNRYVLEKKLQMFYPTTHMNELLFYPSDPTLPSPYGNGHY
# notes: Co-expressed with gQ1 from plasmid in cells (293T); also called HHV-6B gQ2; BgQ2
# B2: monoclonal antibody KH-1 (anti-HHV-6B gQ1 neutralizing antibody) (antibody, V domains shown)
# VH: EVQLQQSGPELEKPGASVKISCKASGYSFTGYNMNWVKQSNGKRLEWIGNIDPYYGGASYNQKFKGKATLTVDKSSTTAYMQLQSLTSEDSAVYYCARGGYGRYFDVWGAGTAVTVSS
# VL: QIVLTQSPAIMSASPGEKVTMTCSASSSISYMHWYQQKPGTSPKRWIYDTSKLASGVPARFSGSGSGTSYSLTISNMESEDAATYYCHQRSRYHTFGGGTRLEIKR
# notes: Mouse (BALB/c) hybridoma antibody; also called MAb KH-1; anti-gQ1 monoclonal antibody KH-1
# Experiments:
# [1] = target: T4, HHV-6B glycoprotein Q1 (gQ1), full length, wild type (human herpesvirus 6B (HHV-6B), UniProt Q9QJ11 25-488); assay: co-expression in cells
# T4 construct: Viral envelope glycoprotein; Tested in lysates of HHV-6B (HST strain)-infected cells (immunoprecipitation) and expressed from plasmid in 293T cells (IFA), alone or with gQ2; also called HHV-6B gQ1; BgQ1
# [2] = target: T5, HHV-6B gQ1 point mutant C487W E488Q (human herpesvirus 6B (HHV-6B), UniProt Q9QJ11 25-486); assay: IFA with KH-1 on 293T cells expressing the point mutant
# T5 construct: Expressed in 293T cells; W is used here
# [3] = target: T6, HHV-6B gQ1 point mutant E488Q G489V (human herpesvirus 6B (HHV-6B), UniProt Q9QJ11 25-487); assay: as above
# T6 construct: Expressed in 293T cells
# [4] = target: T1, HHV-6B gQ1 carboxy-terminal deletion …; assay: IFA on 293T cells co-transfected with the gQ1 mutant and gQ2
# [5] = target: T2, HHV-6B gQ1 carboxy-terminal deletion …; assay: as above
# [6] = target: T3, HHV-6B gQ1 carboxy-terminal deletion …; assay: as above
Binder,binding result [1],binding result [2],binding result [3],binding result [4],binding result [5],binding result [6]
B1,binds,–,–,–,–,–
B2,–,no binding,no binding,no binding,no binding,no binding
